Results published in PMC4400361, “Oligomerization of the Polycystin-2 C-terminal Tail and Effects on Its Ca^2+-binding Properties*” (The Journal of Biological Chemistry, 2015).

Legend:
[1] = target: the molecule itself; assay: SEC-MALS; Superdex 200 10/30 GL, SEC-UV/LS/RI; Ca2+-free apo state, no added CaCl2, 1 mM EDTA; 20 mM imidazole in the buffer for HPC2 Cterm; three injected amounts
[2] = target: the molecule itself; assay: SEC-MALS; Superdex 200 10/30 GL, SEC-UV/LS/RI; Ca2+-bound holo state, 20 mM CaCl2 in the buffer; 20 mM imidazole in the buffer for HPC2 Cterm; three injected amounts for HPC2 Cterm and SUPC2 Ccore

B1: human polycystin-2 C-terminal construct, which includes the full-length cytoplasmic tail (HPC2 Cterm) (domain or fragment, UniProt Q13563 704-968, looked up)
chain: IRKGYHKALVKLKLKKNTVDDISESLRQGGGKLNFDELRQDLKGKGHTDAEIEAIFTKYDQDGDQELTEHEHQQMRDDLEKEREDLDLDHSSLPRPMSSRSFPRSLDDSEEDDDEDSGHSSRRRGSISSGVSYEEFQVLVRRVDRMEHSIGSIVSKIDAVIVKLEIMERAKLKRREVLGRLLDGVAEDERLGRDSEIHREQMERLVREELERWESDDAASQISHGLGTPVGLNGQPRPRSSRPSSSQSTEGMEGAGGNGSSNVHV
notes: polycystin-2 (PC2), human, residues I704-V968, numbered on full-length human PC2; Printed monomer mass 32.2 kDa; also called C-terminal cytoplasmic tail of human PC2; HPC Cterm
For B1, the “stoichiometry N” value [1] was 3 and the “stoichiometry N” value [2] was 3.
